Experimental findings from patent US20240270813A1 (UNIVERSITY OF PITTSBURGH OF THE COMMONWEALTH SYSTEM OF …, published 2024) are described below.

Substitutions are numbered along the chain they refer to. Where “and” joins values, the source holds several entries; their conditions need not be identical. Identical values can stand only once.

B1: TCR AI (TCR, V domains shown)
V domain 1: AQSVAQPEDQVNVAEGNPLTVKCTYSVSGNPYLFWYVQYPNRGLQFLLKYITGDNLVKGSYGFEAEFNKSQTSFHLKKPSALVSDSALYFCAVREPTSGTYKYIFGTGTRLKVLA
V domain 2: DTGVSQDPRHKITKRGQNVTFRCDPISEHNRLYWYRQTLGQGPEFLTYFQNEAQLEKSRLLSDRFSAERPKGSFSTLEIQRTEQGDSAMYLCASSLVNGNEQFFGPGTRLTVLE
B2: TCR AF (TCR, V domains shown)
V domain 1: B1 V domain 1 with E95S
V domain 2: B1 V domain 2 with N98S
B3: TCR AE (TCR, V domains shown)
V domain 1: B1 V domain 1 with E95C
V domain 2: B1 V domain 2 with N98S
B4: TCR AG (TCR, V domains shown)
V domain 1: B1 V domain 1 with E95T
V domain 2: B1 V domain 2 with N98S
B5: TCR AH (TCR, V domains shown)
V domain 1: B1 V domain 1 with E95V
V domain 2: B1 V domain 2 with N98S
B6: TCR F (TCR, V domains shown)
V domain 1: GENVEQHPSTLSVQEGDSAVIKCTYSDSASNYFPWYKQELGKRPQLIIDIRSNVGEKKDQRIAVTLNKTAKHFSLHITETQPEDSAVYFCAAHLTGGGNKLTFGTGTQLKVEL
V domain 2: DTGVSQDPRHKITKRGQNVTFRCDPISEHNRLYWYRQTLGQGPEFLTYFQNEAQLEKSRLLSDRFSAERPKGSFSTLEIQRTEQGDSAMYLCASSSRAGGETQYFGPGTRLLVLE
B7: TCR C (TCR, V domains shown)
V domain 1: KQEVTQIPAALSVPEGENLVLNCSFTDSAIYNLQWFRQDPGKGLTSLLLIQSSQREQTSGRLNASLDKSSGRSTLYIAASQPGDSATYLCAVRPRTSGTYKYIFGTGTRLKVLA
V domain 2: DTGVSQDPRHKITKRGQNVTFRCDPISEHNRLYWYRQTLGQGPEFLTYFQNEAQLEKSRLLSDRFSAERPKGSFSTLEIQRTEQGDSAMYLCASTELSGNTIYFGEGSWLTVVE

In the first test the target is T1, HA-1 “H” peptide (…) presented by HLA-A*02:01 on antigen presenting cells (human). Briefly: cell-based or functional assay.
Regarding B1, the “EC50 values for CD69 Expression” value is 9.2 ng/mL.

In the case of B2, the “EC50 values for CD69 Expression” value was found to be 2.49 ng/mL.

Regarding B3, the “EC50 values for CD69 Expression” value came to 2.77 ng/mL. The same measure, in the same setting: with B4 the figure was 2.27 ng/mL; with B5, 3.4 ng/mL.

The target of a further test is T1, HA-1 “H” peptide (…) presented by …. Nature of the test: cell-based or functional assay. The source holds these as a separate data set.
B6: the “EC50 for CD69 Expression” value is < 10 ng/mL and < 10 nM.

Regarding B7, the “EC50 for CD69 Expression” value was < 10 ng/mL and < 10 nM.
